In publication PMC4005879 (Bioorganic & medicinal chemistry letters, 2014):
Read-outs that look alike come from different tables or passages of the source.

Legend:
[1] = target: capsid assembly inhibitor (CAI) peptide; assay: ITC
[2] = target: HIV capsid protein p24 CTD (Human immunodeficiency virus 1) (UniProt O93182); settings: cited from earlier work
HIV-1 [3] = settings: read-out: MT-2 cells IC50, multi-cycle infection assay, ref [8]; cited from earlier work
HIV-1 [4] = settings: read-out: TZM-b1 cells IC50; single-cycle assay, TZM-bl cells; ref [8]; cited from earlier work

In the case of “C-terminal domain (CTD) of the HIV capsid protein p24, M184A/W185A (domain or fragment)”, the Kd [1] is reported as 8.3 µM, the dH [1] is reported as -9.45 kcal/mol and the stoichiometry N [1] is reported as 0.98.

For CAI, the Kd [2] is given as 15 µM.

For “ISFR8ELLDYYS5ESGS (sidechain bridge or staple) [NYAD-36]”, the IC50 (HIV-1 [3]) is listed as 1.5 ± 0.17 µM and the IC50 (HIV-1 [4]) is listed as 2 ± 0.4 µM.
